Laboratory results taken from publication PMC9482650, “Quantitative fragmentomics allow affinity mapping of interactomes” (Nature Communications, 2022).

T1: SYNPO2L, Q9H987
T1 sequence (Q9H987 1-98, limits assumed, looked up): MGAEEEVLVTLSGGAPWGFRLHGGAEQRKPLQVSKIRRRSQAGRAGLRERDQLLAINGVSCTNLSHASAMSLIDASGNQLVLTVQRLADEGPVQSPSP

T2: USH1C_2, Q9Y6N9
T2 sequence (Q9Y6N9 206-303, limits assumed, looked up): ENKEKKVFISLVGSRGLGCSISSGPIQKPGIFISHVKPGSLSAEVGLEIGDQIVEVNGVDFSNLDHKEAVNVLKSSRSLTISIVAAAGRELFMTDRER

T3: PARD6B, Q9BYG5
T3 sequence (Q9BYG5 152-260, limits assumed, looked up): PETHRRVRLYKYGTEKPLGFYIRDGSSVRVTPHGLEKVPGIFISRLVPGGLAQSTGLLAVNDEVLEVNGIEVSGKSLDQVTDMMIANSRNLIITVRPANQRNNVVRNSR

T4: SHROOM2, Q13796
T4 sequence (Q13796 21-118, limits assumed, looked up): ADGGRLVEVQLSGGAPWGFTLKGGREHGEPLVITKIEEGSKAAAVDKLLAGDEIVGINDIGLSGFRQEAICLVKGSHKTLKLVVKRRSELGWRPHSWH

T5: MPDZ_7, O75970
T5 sequence (O75970 1146-1253, limits assumed, looked up): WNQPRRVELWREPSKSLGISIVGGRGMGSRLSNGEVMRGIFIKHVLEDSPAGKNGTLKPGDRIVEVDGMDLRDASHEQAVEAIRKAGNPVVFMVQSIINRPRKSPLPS

T6: SNTB2, Q13425
T6 sequence (Q13425 110-208, limits assumed, looked up): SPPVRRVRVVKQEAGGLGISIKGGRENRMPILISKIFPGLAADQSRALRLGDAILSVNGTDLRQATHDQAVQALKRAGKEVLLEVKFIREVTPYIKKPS

T7: USH1C_1, Q9Y6N9
T7 sequence (Q9Y6N9 82-179, limits assumed, looked up): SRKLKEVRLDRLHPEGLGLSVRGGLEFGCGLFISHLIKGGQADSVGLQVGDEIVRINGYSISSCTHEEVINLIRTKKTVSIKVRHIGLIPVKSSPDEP

T8: MPDZ_6, O75970
T8 sequence (O75970 1003-1099, limits assumed, looked up): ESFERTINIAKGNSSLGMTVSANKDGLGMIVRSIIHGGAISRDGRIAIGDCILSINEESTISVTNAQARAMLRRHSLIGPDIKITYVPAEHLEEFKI

T9: PTPN13_5, Q12923
T9 sequence (Q12923 1877-1975, limits assumed, looked up): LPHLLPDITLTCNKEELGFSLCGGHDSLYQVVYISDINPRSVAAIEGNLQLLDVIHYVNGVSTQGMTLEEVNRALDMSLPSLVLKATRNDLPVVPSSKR

T10: NHERF1_2, O14745
T10 sequence (O14745 149-244, limits assumed, looked up): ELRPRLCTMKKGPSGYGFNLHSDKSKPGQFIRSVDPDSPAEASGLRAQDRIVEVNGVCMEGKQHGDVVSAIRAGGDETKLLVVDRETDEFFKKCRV

T11: PDZD2_4, O15018
T11 sequence (O15018 723-823, limits assumed, looked up): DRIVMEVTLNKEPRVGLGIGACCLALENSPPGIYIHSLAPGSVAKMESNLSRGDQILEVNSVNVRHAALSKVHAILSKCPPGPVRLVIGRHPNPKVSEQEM


Columns and labels:
Assay in all cases: holdup assay
Design in all cases: key: below the threshold = too weak to quantify, mostly under pKd 3.1 to 4
Conditions in all cases: plain residues with an end cap or a label only (N-terminal biotin on a linker: ttds)
[1] = molecular target: IL16_2, Q14005
Chain of IL16_2, Q14005 (Q14005 350-450): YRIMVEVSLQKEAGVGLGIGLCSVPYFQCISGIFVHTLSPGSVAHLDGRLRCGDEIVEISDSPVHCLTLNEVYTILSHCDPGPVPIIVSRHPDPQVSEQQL

[2] = molecular target: T1, SYNPO2L, Q9H987
[3] = molecular target: T2, USH1C_2, Q9Y6N9
[4] = molecular target: PDLIM4, P50479
Chain of PDLIM4, P50479 (P50479 1-83): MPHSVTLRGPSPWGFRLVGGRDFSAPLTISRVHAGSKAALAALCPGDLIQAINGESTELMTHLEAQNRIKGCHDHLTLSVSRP

[5] = molecular target: T3, PARD6B, Q9BYG5
[6] = molecular target: RIMS2, Q9UQ26
Chain of RIMS2, Q9UQ26 (Q9UQ26 637-758): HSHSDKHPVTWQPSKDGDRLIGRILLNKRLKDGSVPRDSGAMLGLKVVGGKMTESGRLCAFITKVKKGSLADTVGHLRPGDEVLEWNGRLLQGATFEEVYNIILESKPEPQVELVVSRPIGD

[7] = molecular target: MAGI1_6, Q96QZ7
Chain of MAGI1_6, Q96QZ7 (Q96QZ7 1146-1238): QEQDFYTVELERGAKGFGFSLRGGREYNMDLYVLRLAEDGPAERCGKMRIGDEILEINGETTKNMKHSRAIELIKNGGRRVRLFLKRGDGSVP

[8] = molecular target: PTPN13_2, Q12923
Chain of PTPN13_2, Q12923 (Q12923 1363-1462): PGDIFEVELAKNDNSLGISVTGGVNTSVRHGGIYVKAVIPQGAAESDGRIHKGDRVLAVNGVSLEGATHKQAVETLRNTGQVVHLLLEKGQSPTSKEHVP

[9] = molecular target: T4, SHROOM2, Q13796
[10] = molecular target: DLG2_1, Q15700
[11] = molecular target: T5, MPDZ_7, O75970
[12] = molecular target: MAGI1_4, Q96QZ7
Chain of MAGI1_4, Q96QZ7 (Q96QZ7 other isoform, or with tags, fused parts or gaps): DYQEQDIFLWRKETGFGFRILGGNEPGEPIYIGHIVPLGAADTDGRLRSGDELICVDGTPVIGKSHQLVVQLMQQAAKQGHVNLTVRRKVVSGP

[13] = molecular target: CNKSR3, Q6P9H4
Chain of CNKSR3, Q6P9H4 (Q6P9H4 203-303): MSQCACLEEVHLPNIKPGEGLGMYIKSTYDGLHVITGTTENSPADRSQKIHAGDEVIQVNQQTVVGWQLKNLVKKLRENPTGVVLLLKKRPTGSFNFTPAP

[14] = molecular target: T6, SNTB2, Q13425
[15] = molecular target: RGS3, P49796-9
Chain of RGS3, P49796-9 (P49796 other isoform, or with tags, fused parts or gaps): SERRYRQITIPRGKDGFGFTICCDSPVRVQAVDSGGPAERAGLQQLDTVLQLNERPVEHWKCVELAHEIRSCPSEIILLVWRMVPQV

[16] = molecular target: RIMS1, Q86UR5
Chain of RIMS1, Q86UR5 (Q86UR5 584-692): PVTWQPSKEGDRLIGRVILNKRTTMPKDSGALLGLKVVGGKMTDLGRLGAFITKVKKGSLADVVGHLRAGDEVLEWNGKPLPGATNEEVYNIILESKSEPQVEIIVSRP

[17] = molecular target: T7, USH1C_1, Q9Y6N9
[18] = molecular target: T8, MPDZ_6, O75970
[19] = molecular target: MAGI3_3, Q5TCQ9
Chain of MAGI3_3, Q5TCQ9 (Q5TCQ9 572-655): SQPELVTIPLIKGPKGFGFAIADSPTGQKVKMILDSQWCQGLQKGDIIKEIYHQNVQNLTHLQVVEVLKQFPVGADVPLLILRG

[20] = molecular target: T9, PTPN13_5, Q12923
[21] = molecular target: T10, NHERF1_2, O14745
[22] = molecular target: SDCBP_1, O00560
Chain of SDCBP_1, O00560 (O00560 111-198): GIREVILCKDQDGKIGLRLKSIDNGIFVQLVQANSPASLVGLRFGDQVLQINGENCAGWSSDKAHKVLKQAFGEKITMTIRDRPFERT

[23] = molecular target: T11, PDZD2_4, O15018
[24] = molecular target: MAGI1_3, Q96QZ7
Chain of MAGI1_3, Q96QZ7 (Q96QZ7 638-725): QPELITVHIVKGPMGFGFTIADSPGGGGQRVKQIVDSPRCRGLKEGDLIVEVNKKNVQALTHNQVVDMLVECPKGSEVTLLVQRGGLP

[25] = molecular target: PARD3B_2, Q8TEW8
Chain of PARD3B_2, Q8TEW8 (Q8TEW8 376-471): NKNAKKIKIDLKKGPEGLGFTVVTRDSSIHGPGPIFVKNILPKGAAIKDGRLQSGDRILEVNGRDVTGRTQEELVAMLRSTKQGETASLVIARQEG

[26] = molecular target: NHERF2_1, Q15599
Chain of NHERF2_1, Q15599 (Q15599 9-91): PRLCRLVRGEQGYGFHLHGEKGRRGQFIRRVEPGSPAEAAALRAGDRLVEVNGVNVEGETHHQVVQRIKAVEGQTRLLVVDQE

| pKd [1] | pKd [2] | pKd [3] | pKd [4] | pKd [5] | pKd [6] | pKd [7] | pKd [8] | pKd [9] | pKd [10] | pKd [11] | pKd [12] | pKd [13] | pKd [14] | pKd [15] | pKd [16] | pKd [17] | pKd [18] | pKd [19] | pKd [20] | Binder | further results |
| --- | --- | --- | --- | --- | --- | --- | --- | --- | --- | --- | --- | --- | --- | --- | --- | --- | --- | --- | --- | --- | --- |
| below the threshold | below the threshold | below the threshold | below the threshold | below the threshold | below the threshold | 4.91 | below the threshold | below the threshold | 4.74 | below the threshold | 4.34 | below the threshold | 4.87 | below the threshold | below the threshold | below the threshold | below the threshold | 4.33 | below the threshold | HIVEALETDV [PBK, Q96KB5] | pKd [21]: below the threshold; pKd [22]: below the threshold; pKd [23]: below the threshold; pKd [24]: 4.43; pKd [25]: below the threshold; pKd [26]: below the threshold |
| below the threshold | below the threshold | below the threshold | below the threshold | below the threshold | below the threshold | 4.33 | below the threshold | below the threshold | 4.1 | below the threshold | below the threshold | below the threshold | 4.42 | below the threshold | below the threshold | below the threshold | below the threshold | below the threshold | below the threshold | MERLRVETDV [ARHGEF16, Q5VV41] | pKd [21]: below the threshold; pKd [22]: below the threshold; pKd [23]: below the threshold; pKd [24]: below the threshold; pKd [25]: below the threshold; pKd [26]: below the threshold |
| below the threshold | below the threshold | below the threshold | below the threshold | below the threshold | below the threshold | below the threshold | below the threshold | 4.98 | below the threshold | 5.2 | below the threshold | below the threshold | 5.13 | below the threshold | below the threshold | below the threshold | below the threshold | below the threshold | below the threshold | NYWPGKETQL [SLCO1C1, Q9NYB5] | pKd [21]: below the threshold; pKd [22]: below the threshold; pKd [23]: below the threshold; pKd [24]: below the threshold; pKd [25]: below the threshold; pKd [26]: below the threshold |
